Biological target: N-type calcium channels (Mus musculus, UniProt O55017)
Format: cell-based, Swiss mice
Conditions: Tat-NR2B9c 100 μM, conotoxin 1 μM, FIG. 5A

YGRKKRRQRRRKLSSIESDV [Tat-NR2B9c] (Synthetic peptide Tat-NR2B9c) [chimeric peptide of a standard tat peptide and …]
additional inhibition of Ca^2+ current once N-channels are blocked by Omega conotoxin: no additional inhibition
